Measurements as given in patent publication US20240018260A1 (AMUNIX PHARMACEUTICALS, published 2024).

T1: human EpCAM on EpCAM positive human carcinoma cells (SW480, SK-OV-3) (human, UniProt P16422 24-314)
T1 sequence (looked up): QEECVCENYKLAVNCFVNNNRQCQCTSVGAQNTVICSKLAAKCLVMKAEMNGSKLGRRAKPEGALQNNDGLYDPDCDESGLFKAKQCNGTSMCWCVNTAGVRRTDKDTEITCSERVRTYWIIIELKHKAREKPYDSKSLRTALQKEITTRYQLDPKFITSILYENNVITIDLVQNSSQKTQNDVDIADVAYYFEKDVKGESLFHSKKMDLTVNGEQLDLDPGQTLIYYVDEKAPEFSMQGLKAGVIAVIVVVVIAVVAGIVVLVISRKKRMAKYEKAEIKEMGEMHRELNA


biological target: T1, human EpCAM on EpCAM positive human …; test: cell-based or functional assay

Row | Binder | EC50, LDH release cytotoxicity, PBMC:SW480 5:1
1 | Protease-treated (MMP-9 cleaved) AC1278, His(8)-aEpCAM-aCD3 cleaved fragment (bispecific antibody) HHHHHHHHELVMTQSPSSLTVTAGEKVTMSCKSSQSLLNSGNQKNYLTWYQQKPGQPPKLLIYWASTRESGVPDRFTGSGSGTDFTLTISSVQAEDLAVYYCQNDYSYPLTFGAGTKLEIKGGGGSGGGGSGGGGSEVQLLEQSGAELVRPGTSVKISCKASGYAFTNYWLGWVKQRPGHGLEWIGDIFPGSGNIHYNEKFKGKATLTADKSSSTAYMQLSSLTFEDSAVYFCARLRNWDEPMDYWGQGTTVTVSSGGGGSDVQLVQSGAEVKKPGASVKVSCKASGYTFTRYTMHWVRQAPGQGLEWIGYINPSRGYTNYADSVKGRFTITTDKSTSTAYMELSSLRSEDTATYYCARYYDDHYCLDYWGQGTTVTVSSGEGTSTGSGGSGGSGGADDIVLTQSPATLSLSPGERATLSCRASQSVSYMNWYQQKPGKAPKRWIYDTSKVASGVPARFSGSGSGTDYSLTINSLEAEDAATYYCQQWSSNPLTFGGGTKVEIKGTAEAASASGLSGRSDNHSPLG | 8.9 pM
2 | AC1278 His(8)-aEpCAM-aCD3-BSRS1-XTEN_AE864, protease-untreated (intact) anti-EpCAM×anti-CD3 ProTIA (bispecific antibody) HHHHHHHHELVMTQSPSSLTVTAGEKVTMSCKSSQSLLNSGNQKNYLTWYQQKPGQPPKLLIYWASTRESGVPDRFTGSGSGTDFTLTISSVQAEDLAVYYCQNDYSYPLTFGAGTKLEIKGGGGSGGGGSGGGGSEVQLLEQSGAELVRPGTSVKISCKASGYAFTNYWLGWVKQRPGHGLEWIGDIFPGSGNIHYNEKFKGKATLTADKSSSTAYMQLSSLTFEDSAVYFCARLRNWDEPMDYWGQGTTVTVSSGGGGSDVQLVQSGAEVKKPGASVKVSCKASGYTFTRYTMHWVRQAPGQGLEWIGYINPSRGYTNYADSVKGRFTITTDKSTSTAYMELSSLRSEDTATYYCARYYDDHYCLDYWGQGTTVTVSSGEGTSTGSGGSGGSGGADDIVLTQSPATLSLSPGERATLSCRASQSVSYMNWYQQKPGKAPKRWIYDTSKVASGVPARFSGSGSGTDYSLTINSLEAEDAATYYCQQWSSNPLTFGGGTKVEIKGTAEAASASGLSGRSDNHSPLGLAGSPGSPAGSPTSTEEGTSESATPESGPGTSTEPSEGSAPGSPAGSPTSTEEGTSTEPSEGSAPGTSTEPSEGSAPGTSESATPESGPGSEPATSGSETPGSEPATSGSETPGSPAGSPTSTEEGTSESATPESGPGTSTEPSEGSAPGTSTEPSEGSAPGSPAGSPTSTEEGTSTEPSEGSAPGTSTEPSEGSAPGTSESATPESGPGTSTEPSEGSAPGTSESATPESGPGSEPATSGSETPGTSTEPSEGSAPGTSTEPSEGSAPGTSESATPESGPGTSESATPESGPGSPAGSPTSTEEGTSESATPESGPGSEPATSGSETPGTSESATPESGPGTSTEPSEGSAPGTSTEPSEGSAPGTSTEPSEGSAPGTSTEPSEGSAPGTSTEPSEGSAPGTSTEPSEGSAPGSPAGSPTSTEEGTSTEPSEGSAPGTSESATPESGPGSEPATSGSETPGTSESATPESGPGSEPATSGSETPGTSESATPESGPGTSTEPSEGSAPGTSESATPESGPGSPAGSPTSTEEGSPAGSPTSTEEGSPAGSPTSTEEGTSESATPESGPGTSTEPSEGSAPGTSESATPESGPGSEPATSGSETPGTSESATPESGPGSEPATSGSETPGTSESATPESGPGTSTEPSEGSAPGSPAGSPTSTEEGTSESATPESGPGSEPATSGSETPGTSESATPESGPGSPAGSPTSTEEGSPAGSPTSTEEGTSTEPSEGSAPGTSESATPESGPGTSESATPESGPGTSESATPESGPGSEPATSGSETPGSEPATSGSETPGSPAGSPTSTEEGTSTEPSEGSAPGTSTEPSEGSAPGSEPATSGSETPGTSESATPESGPGTSTEPSEGSAPG | 288 pM
3 | AC1357, non-cleavable anti-EpCAM×anti-CD3 ProTIA without the release segment (bispecific antibody) HHHHHHHHELVMTQSPSSLTVTAGEKVTMSCKSSQSLLNSGNQKNYLTWYQQKPGQPPKLLIYWASTRESGVPDRFTGSGSGTDFTLTISSVQAEDLAVYYCQNDYSYPLTFGAGTKLEIKGGGGSGGGGSGGGGSEVQLLEQSGAELVRPGTSVKISCKASGYAFTNYWLGWVKQRPGHGLEWIGDIFPGSGNIHYNEKFKGKATLTADKSSSTAYMQLSSLTFEDSAVYFCARLRNWDEPMDYWGQGTTVTVSSGGGGSDVQLVQSGAEVKKPGASVKVSCKASGYTFTRYTMHWVRQAPGQGLEWIGYINPSRGYTNYADSVKGRFTITTDKSTSTAYMELSSLRSEDTATYYCARYYDDHYCLDYWGQGTTVTVSSGEGTSTGSGGSGGSGGADDIVLTQSPATLSLSPGERATLSCRASQSVSYMNWYQQKPGKAPKRWIYDTSKVASGVPARFSGSGSGTDYSLTINSLEAEDAATYYCQQWSSNPLTFGGGTKVEIKGSPGSPAGSPTSTEEGTSESATPESGPGTSTEPSEGSAPGSPAGSPTSTEEGTSTEPSEGSAPGTSTEPSEGSAPGTSESATPESGPGSEPATSGSETPGSEPATSGSETPGSPAGSPTSTEEGTSESATPESGPGTSTEPSEGSAPGTSTEPSEGSAPGSPAGSPTSTEEGTSTEPSEGSAPGTSTEPSEGSAPGTSESATPESGPGTSTEPSEGSAPGTSESATPESGPGSEPATSGSETPGTSTEPSEGSAPGTSTEPSEGSAPGTSESATPESGPGTSESATPESGPGSPAGSPTSTEEGTSESATPESGPGSEPATSGSETPGTSESATPESGPGTSTEPSEGSAPGTSTEPSEGSAPGTSTEPSEGSAPGTSTEPSEGSAPGTSTEPSEGSAPGTSTEPSEGSAPGSPAGSPTSTEEGTSTEPSEGSAPGTSESATPESGPGSEPATSGSETPGTSESATPESGPGSEPATSGSETPGTSESATPESGPGTSTEPSEGSAPGTSESATPESGPGSPAGSPTSTEEGSPAGSPTSTEEGSPAGSPTSTEEGTSESATPESGPGTSTEPSEGSAPGTSESATPESGPGSEPATSGSETPGTSESATPESGPGSEPATSGSETPGTSESATPESGPGTSTEPSEGSAPGSPAGSPTSTEEGTSESATPESGPGSEPATSGSETPGTSESATPESGPGSPAGSPTSTEEGSPAGSPTSTEEGTSTEPSEGSAPGTSESATPESGPGTSESATPESGPGTSESATPESGPGSEPATSGSETPGSEPATSGSETPGSPAGSPTSTEEGTSTEPSEGSAPGTSTEPSEGSAPGSEPATSGSETPGTSESATPESGPGTSTEPSEGSAPG | 3300 pM
